Data from the supplement of paper PMC7877785.
± gives the uncertainty stated by the source.

Experiment: self-splicing fitness, log relative to wild type (ln ratio); higher = more splicing; Tetrahymena group I intron in knt gene, E. coli kanamycin selection, DiMSum; sequences stand for … in CUCUCU…GGAGGGAAAAGUUAUCAGGCAUGCACCUGGUAGCUAGUCUUUAAACCAAUAGAUUGCAUCGGUUUAAAAGGCAAGACCGUCAAAUUGCGGGAAAGGGGUCAACAGCCGUUCAGUACCAAGUCUCAGGGGAAACUUUGAGAUGGCCUUGCAAAGGGUAUGGUAAUAAGCUGACGGACAUGGUCCUAACCACGCAGCCAAGUCCUAAGUCAACAGAUCUUCUGUUGAUAUGGAUGCAGUUCACAGACUAAAUGUCGGUCGGGGAAGAUGUAUUCUUCUCAUAAGAUAUAGUCGGACCUCUCCUUAAUGGGAGCUAGCGGAUGAAGUGAUGCAACACUGGAGCCGCUGGGAACUAAUUUGUAUGCGAAAGUAUAUUGAUUAGUUUUGGAGUACUCGUGGUCG
Method in brief: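 DiMSum derived fitness as the error-weighted combination of fold changes across replicates, kanamycin versus no kanamycin, normalised to wild type. E. coli BL21(DE3) held the library, which randomised all eight P1ex-region intron nucleotides within the knt kanamycin-resistance gene on pET-22b(+). Six replicate transformations grew overnight at 37°C or 30°C on LB agar with or without 25 μg/mL kanamycin, also containing 100 μg/mL carbenicillin, 50 μM IPTG and 0.2% rhamnose, and pooled colonies were amplicon-sequenced on an Illumina HiSeq 2500.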

Sequence | self-splicing fitness (ln) (30 °C) | self-splicing fitness (ln) (37 °C)
UGUCAGCAAUAUUACGAGGU | -2.83 ± 0.33 | -2.81 ± 0.41
CGGAAGCAAUAUUACGACUU | -1.28 ± 0.084 | 0.261 ± 0.089
CUUAAGCAAUAUUACGUAAA | -3.93 ± 0.27 | -2.88 ± 0.36
CGGCAGCAAUAUUACGGUAA | -2.56 ± 0.13 | -2.33 ± 0.13
GAGCAGCAAUAUUACGGCGG | -2.18 ± 0.11 | -1.77 ± 0.16
CGCUAGCAAUAUUACGCUUU | -3.13 ± 0.18 | -2.32 ± 0.2
UUAAAGCAAUAUUACGGUGC | -4.36 ± 0.42 | -2.14 ± 0.34
AUUCAGCAAUAUUACGUGGG | -2.63 ± 0.11 | -1.87 ± 0.1
UGUGAGCAAUAUUACGUGGA | -2.53 ± 0.15 | -3.05 ± 0.22
CUCCAGCAAUAUUACGAUGA | -2.36 ± 0.25 | -2.7 ± 0.27
CUGAAGCAAUAUUACGCCGG | -1.86 ± 0.25 | -1.19 ± 0.25
GUGCAGCAAUAUUACGUCUA | -0.238 ± 0.078 | 0.283 ± 0.083
CCCUAGCAAUAUUACGGAGG | -2.87 ± 0.15 | -2.77 ± 0.26
CCAAAGCAAUAUUACGCACG | -0.44 ± 0.087 | -0.583 ± 0.11
CCGCAGCAAUAUUACGCAUG | -2.91 ± 0.1 | -0.661 ± 0.076
UGGCAGCAAUAUUACGUCAG | -0.12 ± 0.074 | -0.817 ± 0.11
UAUGAGCAAUAUUACGUUUG | -3.93 ± 0.26 | -1.8 ± 0.15
UCGAAGCAAUAUUACGCUUC | -3.77 ± 0.25 | -2.38 ± 0.3
GCGUAGCAAUAUUACGCCAC |  | -2.26 ± 0.29
AAGAAGCAAUAUUACGCCGG | -2.02 ± 0.24 | -1.81 ± 0.18

Sequence | self-splicing fitness (ln) (30 °C) | self-splicing fitness (ln) (37 °C)
UUGAAGCAAUAUUACGCAAU | -2.4 ± 0.21 | -2.02 ± 0.16
UAUAAGCAAUAUUACGGCAA | -0.395 ± 0.17 | -0.0869 ± 0.2
GUACAGCAAUAUUACGCUUG | -1.97 ± 0.098 | -1.1 ± 0.12
CCCGAGCAAUAUUACGAACA | -2.93 ± 0.3 | -2.51 ± 0.35
AGUUAGCAAUAUUACGAAAC |  | -0.856 ± 0.39
GGGUAGCAAUAUUACGAUCC | -2.2 ± 0.37 | -1.47 ± 0.5
UCUUAGCAAUAUUACGUACC | -1.26 ± 0.48 | -1.53 ± 0.41
CCACAGCAAUAUUACGGUAC | -4.19 ± 0.19 | -2.55 ± 0.18
GGUGAGCAAUAUUACGCUCG |  | -1.37 ± 0.4
CCCGAGCAAUAUUACGGCAU | -3.28 ± 0.37 | -1.85 ± 0.32
UUUGAGCAAUAUUACGGAGU | -2.49 ± 0.28 | 
CUUGAGCAAUAUUACGCUCU | -2.57 ± 0.5 | -1.13 ± 0.33
GCUCAGCAAUAUUACGUACA | -2.16 ± 0.12 | -0.932 ± 0.14
UCUUAGCAAUAUUACGAUUU | -3.07 ± 0.18 | -1.09 ± 0.13
CUUUAGCAAUAUUACGCUAC | -2.83 ± 0.35 | 
UUUCAGCAAUAUUACGGUCG | -0.269 ± 0.074 | 0.418 ± 0.11
CCAGAGCAAUAUUACGCCAC | -3.59 ± 0.26 | -2.28 ± 0.24
CCUUAGCAAUAUUACGUGGU | -4.41 ± 0.36 | -1.91 ± 0.23
AAGUAGCAAUAUUACGUAUG | -3.38 ± 0.22 | -1.4 ± 0.19
